Our source for the EC50 values is patent US20210214417A1 (KAHR MEDICAL, published 2021).

For the test, the target named is T1, recombinant human His-tagged CD47 protein (ACRO Biosystem, cat # CD7-H5227) (human, UniProt Q08722 19-139).
T1 construct: also called Recombinant human CD47; not shown: His tag
As to the kind of experiment: competition ELISA: recombinant human CD47 on the plate, fusion protein added first, then biotinylated SIRPα as the blocked ligand, streptavidin-HRP and TMB, 450 nm; EC50 calculated over 0 to 0.7 ug/ml. As to the method:
SIRPα-4-1BBL fusion protein, or a positive control anti CD47 antibody were added to the plate. Following wash biotinylated recombinant human SIRPα was added followed by streptavidin HRP and TMB substrate. Interaction of SIRPα with CD47 was measured by absorbance at 450 nm.
Methods—ELISA plates were coated overnight with recombinant human CD47. The plates were washed and incubated for 1 hour with different concentrations of the produced SIRPα-4-BBL fusion proteins or a positive control anti CD47 antibody. Following, a biotinylated SIRPα was added; and following 1 hour incubation the plates were washed and blotted with Streptavidin-HRP and TMB substrate according to a standard ELISA protocol (FIG. 13A). Plates were analyzed using a Plate reader (Thermo Scientific, Multiscan FC) at 450 nm, with reference at 620 nm.

T1 sequence (Q08722 19-139 limits assumed): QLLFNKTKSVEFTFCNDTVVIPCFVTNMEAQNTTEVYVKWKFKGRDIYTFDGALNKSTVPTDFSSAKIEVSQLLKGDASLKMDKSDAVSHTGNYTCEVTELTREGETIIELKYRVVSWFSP

B1: C-terminal his-tagged DSP107_V3.1 (SEQ ID NO: 17) (other)
chain: EEELQVIQPDKSVLVAAGETATLRCTATSLIPVGPIQWFRGAGPGRELIYNQKEGHFPRVTTVSDLTKRNNMDFSIRIGNITPADAGTYYCVKFRKGSPDDVEFKSGAGTELSVRAGSGARASPGSAASPRLREGPELSPDDPAGLLDLRQGMFAQLVAQNVLLIDGPLSWYSDPGLAGVSLTGGLSYKEDTKELVVAKAGVYYVFFQLELRRVVAGEGSGSVSLALHLQPLRSAAGAAALALTVDLPPASSEARNSAFGFQGRLLHLSAGQRLGVHLHTEARARHAWQLTQGATVLGLFRVTPEIPAGLPSPRSEHHHHHH
notes: also called (CH)-V3.1; DSP107_var3.1 with C-terminal His tag
B1: the EC50 was 0.103 µg/mL.

Broadly, the EC50 is the concentration needed to bring the measured effect to its halfway point.
